Assay [1] concerns the target T1, human CD19 on CD19+ B cell lines (Ramos, Raji) (human, UniProt P15391 20-556).
T1 sequence (looked up): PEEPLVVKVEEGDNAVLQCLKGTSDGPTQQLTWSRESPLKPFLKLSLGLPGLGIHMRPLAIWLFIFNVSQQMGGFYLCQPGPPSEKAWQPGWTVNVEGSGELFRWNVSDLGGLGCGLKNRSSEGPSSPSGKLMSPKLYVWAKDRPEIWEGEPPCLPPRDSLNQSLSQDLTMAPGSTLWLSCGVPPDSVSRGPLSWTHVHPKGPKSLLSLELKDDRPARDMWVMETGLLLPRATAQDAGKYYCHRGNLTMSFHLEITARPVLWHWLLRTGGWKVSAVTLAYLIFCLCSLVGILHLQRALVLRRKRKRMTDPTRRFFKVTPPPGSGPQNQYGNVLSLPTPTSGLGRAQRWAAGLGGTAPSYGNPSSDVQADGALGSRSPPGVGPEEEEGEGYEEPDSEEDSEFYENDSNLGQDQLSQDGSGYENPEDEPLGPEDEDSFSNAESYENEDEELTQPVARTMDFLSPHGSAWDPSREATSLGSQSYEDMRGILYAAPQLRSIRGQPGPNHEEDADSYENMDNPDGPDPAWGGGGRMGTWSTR
The experiment in a line: cell-based or functional assay.

Assay [2] has as its target T1, human CD19 on CD19+ B cell lines …. The experiment in a line: flow cytometry on Ramos cells. On the technique in general: Flow cytometry measures light scatter and fluorescence of single cells or particles in a stream.
Assay [3] has as its target T2, human CD3 on CD3+ Jurkat cells (human, UniProt P07766 23-207; P09693 23-182; P04234 22-171).
T2 construct: whole, on cells; also called CD3 positive Jurkat cells
As to the kind of experiment: flow cytometry on Jurkat cells.

Assay [4] deals with T1, human CD19 on CD19+ B cell lines …. As to the kind of experiment: FACS on CD19+ Ramos cells.
Assay [5] addresses T3, human PD-1 on engineered CHO-S cells (W305-CHO-S.hPro1.C6) (human, UniProt Q15116 25-288).
T3 construct: whole, on cells; also called human PD-1 engineered cells; PD-1+ cells
As to the kind of experiment: FACS on human PD-1 engineered cells. As for the experimental part: (§1) Engineered human PD-1 expressing cells W305-CHO-S.hPro1.C6 were seeded at 1×10⁵ cells/well in U-bottom 96-well plates (COSTAR 3799). Antibodies with 3.16-fold titration in 1% BSA DPBS from 200 nM to 0.002 nM were added to the cells. The plates were incubated at 4° C. for 1 hour. After wash, […] 1:125 diluted PE-labeled goat anti-human antibody (Jackson 109-115-098) was added to each well and the plates were incubated at 4° C. for 1 hour. The binding of the antibodies onto the cells was tested by flow cytometry and the mean fluorescence intensity (MFI) was analyzed by FlowJo.

Assay [6] has as its target T3, human PD-1 on engineered CHO-S cells …. The experiment in a line: FACS on human PD-1 engineered cells. As for the experimental part: as §1
This is another data set of the same source.

Assay [7] has the same target. The experiment in a line: FACS competition: antibody titrated against human PD-L1 binding to PD-1; falling curve, half-maximal value labelled EC50 on the sheet. As for the experimental part:
(§2) In order to test whether the bispecific antibodies could block hPD-L1 binding to hPD-1 protein, a competitive FACS was conducted. […] Plates were incubated at 4° C. for 1 hour. After wash, the binding of W315-hPro1.ECD.mFc to cell expressive human PD-1 was detected by FITC-labeled goat anti-mouse antibody (abcam 98716 1:125). The competition binding of antibodies to the cells was tested by flow cytometry and the mean fluorescence intensity (MFI) was analyzed by FlowJo.

Assay [8] shares this target. The description is as above. As for the experimental part: as §2
The source holds these as a separate data set.

Assay [9] concerns the target T4, human PD-1 ECD mouse Fc fusion (W305-hPro1.ECD.mFc) (human, UniProt Q15116 25-170).
T4 construct: extracellular domain; In-house protein; also called hPD-1-ECD; human PD-1 coated on the plate
The experiment in a line: dual-binding ELISA: human PD-1 ECD coated, antibody titrated, bound antibody detected with biotinylated human CTLA-4 ECD and streptavidin-HRP. Here is the method:
In order to test whether the bispecific antibodies could bind to both hPD-1 and hCTLA-4, an ELISA assay was developed as below. A 96-well ELISA plate (Nunc MaxiSorp, ThermoFisher) was coated overnight at 4° C. with 0.5 μg/ml antigen-1 (hPD-1-ECD, W305-hPro1.ECD.mFc) in carbonate-bicarbonate buffer. After a 1 hour blocking step with 2% (w/v) bovine serum albumin (Pierce) dissolved in PBS, serial dilutions of the different PD-1×CTLA-4 bispecific antibodies in PBS containing 2% BSA PBS were incubated on the plates for 1 hour at room temperature. Following the incubation, plates were washed three times with 300 μL per well of PBS containing 0.5% (v/v) Tween 20. […] After washing the plates three times, Streptavidin-HRP (Lifetechnologies, #SNN1004) (1:20000 diluted) was added and incubated on the plates for 1 hour at room temperature. After washing six times with […] per well of PBS containing 0.5% (v/v) Tween 20, 100 μL tetramethylbenzidine (TMB) substrate was added for the detection per well. The reaction was stopped after approximately 5 minutes through the addition of […] per well of 2 M HCl. The absorbance of the wells was measured at 450 nm with a multiwall plate reader (SpectraMax® M5e).

Like-named read-outs stand apart in the source and are kept apart here.

T3 sequence (Q15116 25-288, change not shown): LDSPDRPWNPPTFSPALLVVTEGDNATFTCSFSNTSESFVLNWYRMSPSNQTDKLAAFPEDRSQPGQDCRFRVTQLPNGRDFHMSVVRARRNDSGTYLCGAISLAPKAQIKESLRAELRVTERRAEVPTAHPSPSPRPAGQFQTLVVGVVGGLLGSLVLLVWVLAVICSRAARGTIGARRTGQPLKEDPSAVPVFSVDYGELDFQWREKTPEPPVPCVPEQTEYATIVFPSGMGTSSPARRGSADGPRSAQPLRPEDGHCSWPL
T4 sequence (Q15116 25-170): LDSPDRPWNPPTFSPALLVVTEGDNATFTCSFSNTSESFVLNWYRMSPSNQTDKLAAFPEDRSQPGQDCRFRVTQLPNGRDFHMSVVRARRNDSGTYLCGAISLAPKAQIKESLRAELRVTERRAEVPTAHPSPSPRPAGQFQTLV
T2 sequence (P07766 23-207, chain 1 of 3): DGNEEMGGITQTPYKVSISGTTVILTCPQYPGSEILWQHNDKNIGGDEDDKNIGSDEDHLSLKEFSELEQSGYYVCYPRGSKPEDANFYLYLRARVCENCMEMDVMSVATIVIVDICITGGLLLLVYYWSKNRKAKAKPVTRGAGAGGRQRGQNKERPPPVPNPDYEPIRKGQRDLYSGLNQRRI
T2 sequence (P09693 23-182, chain 2 of 3): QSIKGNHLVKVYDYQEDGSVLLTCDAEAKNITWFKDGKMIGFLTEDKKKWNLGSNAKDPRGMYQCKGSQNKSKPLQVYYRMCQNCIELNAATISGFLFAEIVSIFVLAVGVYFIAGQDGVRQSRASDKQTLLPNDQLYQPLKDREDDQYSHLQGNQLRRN
T2 sequence (P04234 22-171, chain 3 of 3): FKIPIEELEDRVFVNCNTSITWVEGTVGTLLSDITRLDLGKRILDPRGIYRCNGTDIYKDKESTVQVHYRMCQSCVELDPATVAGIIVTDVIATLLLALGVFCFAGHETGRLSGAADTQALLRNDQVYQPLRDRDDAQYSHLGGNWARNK

B1: W3438-T3U4.F16-1.uIgG4.SP, bispecific trivalent anti-CD3 x CD19 (bispecific antibody)
heavy 1: QVQLVQSGAEVKKPGSSVKVSCKASGFAFTDYYIHWVRQAPGQGLEWMGWISPGNVNTKYNENFKGRVTITADKSTSTAYMELSSLRSEDTAVYYCARDGYSLYYFDYWGQGTLVTVLEDLKNVFPPEVAVFEPSEAEISHTQKATLVCLATGFYPDHVELSWWVNGKEVHSGVCTDPQPLKEQPALQDSRYALSSRLRVSATFWQNPRNHFRCQVQFYGLSENDEWTQDRAKPVTQIVSAEAWGRYGPPCPPCPAPEFLGGPSVFLFPPKPKDTLMISRTPEVTCVVVDVSQEDPEVQFNWYVDGVEVHNAKTKPREEQFNSTYRVVSVLTVLHQDWLNGKEYKCKVSNKGLPSSIEKTISKAKGQPREPQVYTLPPCQEEMTKNQVSLWCLVKGFYPSDIAVEWESNGQPENNYKTTPPVLDSDGSFFLYSRLTVDKSRWQEGNVFSCSVMHEALHNHYTQKSLSLSLGK
light 1: DIVMTQSPDSLAVSLGERATINCKSSQSLLNSRTRKNYLAWYQQKPGQPPKLLIYWASTRQSGVPDRFSGSGSGTDFTLTISSLQAEDVAVYYCTQSHTLRTFGGGTKVEIKPDIQNPDPAVYQLRDSKSSDKSVCLFTDFDSQTQVSQSKDSDVYITDKCVLDMRSMDFKSNSAVAWSQKSDFACANAFQNSIIPEDTFFPSPESS
heavy 2: QMQLVQSGPEVKKPGTSVKVSCKASGYAFTSYNMYWVRQARGQRLEWIGYIDPYNGDTTYNQKFKGRVTITRDMSTSTAYMELSSLRSEDTAVYYCLTTAYAMDYWGQGTLVTVSSASTKGPSVFPLAPCSRSTSESTAALGCLVKDYFPEPVTVSWNSGALTSGVHTFPAVLQSSGLYSLSSVVTVPSSSLGTKTYTCNVDHKPSNTKVDKRVGGGGSGGGGSQMQLVQSGPEVKKPGTSVKVSCKASGYAFTSYNMYWVRQARGQRLEWIGYIDPYNGDTTYNQKFKGRVTITRDMSTSTAYMELSSLRSEDTAVYYCLTTAYAMDYWGQGTLVTVSSASTKGPSVFPLAPCSRSTSESTAALGCLVKDYFPEPVTVSWNSGALTSGVHTFPAVLQSSGLYSLSSVVTVPSSSLGTKTYTCNVDHKPSNTKVDKRVESKYGPPCPPCPAPEFLGGPSVFLFPPKPKDTLMISRTPEVTCVVVDVSQEDPEVQFNWYVDGVEVHNAKTKPREEQFNSTYRVVSVLTVLHQDWLNGKEYKCKVSNKGLPSSIEKTISKAKGQPREPQVCTLPPSQEEMTKNQVSLSCAVKGFYPSDIAVEWESNGQPENNYKTTPPVLDSDGSFFLVSRLTVDKSRWQEGNVFSCSVMHEALHNHYTQKSLSLSLGK
light 2: DIQLTQSPSFLSASVGDRVTITCSASSTVNYMHWYQQKPGKAPKLLIYSTSNLASGVPSRFSGSGSGTEFTLTISSLQPEDFATYYCHQWSSYPYTFGQGTKLEIKRTVAAPSVFIFPPSDEQLKSGTASVVCLLNNFYPREAKVQWKVDNALQSGNSQESVTEQDSKDSTYSLSSTLTLSKADYEKHKVYACEVTHQGLSSPVTKSFNRGEC
notes: also called F16-Design_2-QQQQ (IgG4)
For orientation: EC50 means the concentration at which the effect is half-maximal. A low value points to higher potency in that assay. What is called EC50 (read off the curve) is the concentration needed to bring the measured effect to its halfway point. A lower EC50 (read off the curve) goes with a more potent agent. For B1, in assay [1], the “EC50 of T-cell engaged malignant B cell killing” value turned out to be 0.0055 nM. Further, the “EC50 of cell lysis, CD8+ T cells and Raji cells, 4 hours” value in assay [1] is 3.2 nM. Also, the EC50 in [2] stood at 1.8 nM; in assay [3], 19.3 nM. The concentration giving a half-maximal response (EC50 (read off the curve)) in assay [4] lay within 1 to 2 nM.

B2: U6T1.G25R.IgG4, bispecific anti-PD-1 x CTLA-4 (as listed in Example 15) (bispecific antibody)
heavy: EVQLLESGGGLVQPGGSLRLSCAASGFTFSSHAMSWVRQAPGKGLEWVSTITGGGGSIYYADSVKGRFTISRDNSKNTLYLQMNSLRAEDTAVYYCAKNRAGEGYFDYWGQGTLVTVSSASTKGPSVFPLAPCSRSTSESTAALGCLVKDYFPEPVTVSWNSGALTSGVHTFPAVLQSSGLYSLSSVVTVPSSSLGTKTYTCNVDHKPSNTKVDKRVGGGGSGGGGSQVQLVESGGGVVQPGRSLRLSCAASGFTFSSYTMHWVRQAPGKGLEWVTFISYDGNNKYYADSVKGRFTISRDNSKNTLYLQMNSLRAEDTAIYYCARTGWLGPFDYWGQGTLVTVLEDLKNVFPPEVAVFEPSEAEISHTQKATLVCLATGFYPDHVELSWWVNGKEVHSGVCTDPQPLKEQPALQDSRYALSSRLRVSATFWQNPRNHFRCQVQFYGLSENDEWTQDRAKPVTQIVSAEAWGRYGPPCPPCPAPEFLGGPSVFLFPPKPKDTLMISRTPEVTCVVVDVSQEDPEVQFNWYVDGVEVHNAKTKPREEQFNSTYRVVSVLTVLHQDWLNGKEYKCKVSNKGLPSSIEKTISKAKGQPREPQVYTLPPSQEEMTKNQVSLTCLVKGFYPSDIAVEWESNGQPENNYKTTPPVLDSDGSFFLYSRLTVDKSRWQEGNVFSCSVMHEALHNHYTQKSLSLSLGK
light 1: SYELTQPLSVSVALGQTARITCGGDNIGNKDVHWYQQKPGQAPVLVIYRDSNRPSGIPEGFSGSNSGNTATLTISRAQAGDEADYYCQVWDSIWVFGGGTKLTVLGQPKAAPSVTLFPPSSEELQANKATLVCLISDFYPGAVTVAWKADSSPVKAGVETTTPSKQSNNKYAASSYLSLTPEQWKSHKSYSCQVTHEGSTVEKTVAPTECS
light 2: not shown
notes: kept apart; also called U6T1 in G25R format
Broadly, the IC50 is the point on the concentration scale where inhibition reaches its midpoint. A high value points to a need for much substance. On to B2, for which the figures for the EC50 in assay [5], in assay [6] and in assay [9] were 1.81 nM, 1.42 nM and 0.107 nM, respectively. The values for the IC50 in assay [7] and in assay [8] were 1.92 nM and 1.67 nM, respectively.

The record behind these values is patent publication US20240124586A1 (WUXI BIOLOGICS IRELAND, published 2024).
